From patent US20020042368A1 (IMMUNEX, published 2002)

Assays:
integrin α5β1 = target: T1, integrin α5β1 (human, UniProt P08648 42-1049; P05556 21-798); experiment: flow cytometry on HMVEC-d; dis-Fc binding with 5-8 fold excess mAb SAM-1 (competitor) vs control mAb
T1 construct: whole, on cells; Native integrin on HMVEC-d; also called CD49e
Method: (§1) Prior to performing binding studies, HMVEC-d were removed from culture vessels using trypsin-EDTA. The cells were washed in media containing serum and resuspended in binding medium which consisted of PBS containing 1 mM Ca2+, 1 mM Mg2+ and 0.5 mM Mn2+, 0.1% sodium azide, 10% Normal goat serum, 2% rabbit serum and 2% fetal bovine serum.
(§2) One hundred microliters of cell suspension, containing 200,000 to 500,000 HMVEC-d, were added to 12×75 mm plastic test tubes. Monoclonal antibodies specific for one of the integrins, or a control monoclonal antibody (CD29 or M15), were added to the cell suspensions at a concentration of 100 μg/ml (5-8 fold mass excess) 15 minutes prior to addition of disintegrin-Fc fusion proteins. ADAM disintegrin-Fc polypeptides and control Fc fusion polypeptides (P7.5II.Fc) were added, at various concentrations from 12.5 to 20 μg/ml, to the cell suspensions and incubated for 1 hour at 30° C. Unbound Fc polypeptides were washed away by centrifugation of cells in 2 mls of binding media. The washed cell pellets were resuspended in binding medium and then incubated at 30° C. for 30 minutes with goat anti-human Fc-specific biotinylated antibody at a concentration of 2.5 μg/ml for 30 minutes. After centrifugation and washing of the cell pellets, the cells were resuspended in binding medium and bound anti-human Fc-biotin was detected by adding streptavidin-phycoerythrin conjugate to the cell suspension at a 1:1000 dilution (1 μg/ml) and incubating at 30° C. for 30 minutes. The unbound streptavidin-phycoerythrin was washed away and the cells were resuspended in binding medium containing propidum iodide. The level of fluorescent binding (disintegrin-Fc binding) was determined by flow cytometry.
(§3) The level of binding of each ADAM disintegrin-Fc polypeptide was determined in the presence of anti-integrin specific mAb and in the presence of control mAb. Both the intensity of binding (MFI) and the percentage of cells binding were determined. Percent inhibition was calculated using the formula [1-(MFI control-MFI integrin mAb)/MFI control.

integrin αvβ3 = target: T2, integrin αvβ3 (human, UniProt P06756 31-1048; P05106 27-788); experiment: flow cytometry on HMVEC-d; dis-Fc binding with 5-8 fold excess mAb LM609 (competitor) vs control mAb
T2 construct: whole, on cells; Native integrin on primary human dermal microvascular endothelial cells (HMVEC-d); also called CD51/61
Method: as §1, §2, §3

Row | percent inhibition of binding (integrin α5β1) [%] | percent inhibition of binding (integrin αvβ3) [%] | Binder
1 | 54 |  | ADAM-21dis-Fc (Fc fusion, also called ADAM-21 disintegrin-Fc polypeptide) TSCGNGVVEREEQCDCGSVQQCEQDACCLLNCTLRPGAACAFGLCCKDCKFMPSGELCRQEVNECDLPEWCNGTSHQCPEDRYVQDGIPCSDSAYCYQKRCNNHDQHCREIFGKDAKSASQNCYKEINSQGNRFGHCGINGTTYLKCHISDVFCGRVQCENVRDIPLLQDHFTLQHTHINGVTCWGIDYHLRMNISDIGEVKDGTVCGPGKICIHKKCVSLSVLSHVCLPETCNMKGICNNKHHCHCGYGWSPPYCQHRGYGGSIDSGPASAKRSCDKTHTCPPCPAPEAEGAPSVFLFPPKPKDTLMISRTPEVTCVVVDVSHEDPEVKFNWYVDGVEVHNAKTKPREEQYNSTYRVVSVLTVLHQDWLNGKEYKCKVSNKALPAPIEKTISKAKGQPREPQVYTLPPSRDELTKNQVSLTCLVKGFYPSDIAVEWESNGQPENNYKTTPPVLDSDGSFFLYSKLTVDKSRWQQGNVFSCSVMHEALHNHYTQKSLSLSPGK
2 | 36 | 42 | ADAM-22dis-Fc (Fc fusion, also called ADAM-22 disintegrin-Fc polypeptide) TSCGNGFIETGEECDCGTPAECVLEGAECCKKCTLTQDSQCSDGLCCKKCKFQPMGTVCREAVNDCDIRETCSGNSSQCAPNIHKMDGYSCDGVQGICFGGRCKTRDRQCKYIWGQKVTASDKYCYEKLNIEGTEKGNCGKDKDTWIQCNKRDVLCGYLLCTNIGNIPRLGELDGEITSTLVVQQGRTLNCSGGHVKLEEDVDLGYVEDGTPCGPQMMCLEHRCLPVASFNFSTCLSSKEGTICSGNGVCSNELKCVCNRHWIGSDCNTYFPHNDDAKTGITLSGNGVAGTNGSCDKTHTCPPCPAPEAEGAPSVFLFPPKPKDTLMISRTPEVTCVVVDVSHEDPEVKFNWYVDGVEVHNAKTKPREEQYNSTYRVVSVLTVLHQDWLNGKEYKCKVSNKALPAPIEKTISKAKGQPREPQVYTLPPSRDELTKNQVSLTCLVKGFYPSDIAVEWESNGQPENNYKTTPPVLDSDGSFFLYSKLTVDKSRWQQGNVFSCSVMHEALHNHYTQKSLSLSPGK
3 | 49 |  | ADAM-23dis-Fc (Fc fusion, also called ADAM-23 disintegrin-Fc polypeptide) TSCGNGYVEAGEECDCGFHVECYGLCCKKCSLSNGAHCSDGPCCNNTSCLFQPRGYECRDAVNECDITEYCTGDSGQCPPNLHKQDGYACNQNQGRCYNGECKARDNQCQYIWGTKAAGSDKFCYEKLNTEGTEKGNCGKDGDRWIQCSKHDVFCGFLLCTNLTRAPRIGQLQGEIIPTSFYHQGRVIDCSGAHVVLDDDTDVGYVEDGTPCGPSMMCLDRKCLQIQALNMSSCPLDSKGKVCSGHGVCSNEATCICDFTWAGTDCSIRDPVRNLHPPKDEGPKGPSATNRSCDKTHTCPPCPAPEAEGAPSVFLFPPKPKDTLMISRTPEVTCVVVDVSHEDPEVKFNWYVDGVEVHNAKTKPREEQYNSTYRVVSVLTVLHQDWLNGKEYKCKVSNKALPAPIEKTISKAKGQPREPQVYTLPPSRDELTKNQVSLTCLVKGFYPSDIAVEWESNGQPENNYKTTPPVLDSDGSFFLYSKLTVDKSRWQQGNVFSCSVMHEALHNHYTQKSLSLSPGK

Further lines, the binder ahead of its results:

Row | Binder | percent inhibition of binding (integrin α5β1) [%] | percent inhibition of binding (integrin αvβ3) [%]
4 | ADAM-17dis-Fc (Fc fusion, also called ADAM-17 disintegrin-Fc polypeptide) TSCGNSRVDEGEECDPGIMYLNNDTCCNSDCTLKEGVQCSDRNSPCCKNCQFETAQKKCQEAINATCKGVSYCTGNSSECPPPGNAEDDTVCLDLGKCKDGKCIPFCEREQQLESCACNETDNSCKVCCRDLSGRCVPYVDAEQKNLFLRKGKPCTVGFCDMNGKCEKRVQDVIERFWDFIDQLSINTFGKFLADNRSCDKTHTCPPCPAPEAEGAPSVFLFPPKPKDTLMISRTPEVTCVVVDVSHEDPEVKFNWYVDGVEVHNAKTKPREEQYNSTYRVVSVLTVLHQDWLNGKEYKCKVSNKALPAPIEKTISKAKGQPREPQVYTLPPSRDELTKNQVSLTCLVKGFYPSDIAVEWESNGQPENNYKTTPPVLDSDGSFFLYSKLTVDKSRWQQGNVFSCSVMHEALHNHYTQKSLSLSPGK |  | 50
5 | ADAM-15dis-Fc (Fc fusion, also called ADAM-15 disintegrin-Fc polypeptide) TSCGNMFVEPGEQCDCGFLDDCVDPCCDSLTCQLRPGAQCASDGPCCQNCQLRPSGWQCRPTRGDCDLPEFCPGDSSQCPPDVSLGDGEPCAGGQAVCMHGRCASYAQQCQSLWGPGAQPAAPLCLQTANTRGNAFGSCGRNPSGSYVSCTPRDAICGQLQCQTGRTQPLLGSIRDLLWETIDVNGTELNCSWVHLDLGSDVAQPLLTLPGTACGPGLVCIDHRCQRVDLLGAQECRSKCHGHGVCDSNRHCYCEEGWAPPDCTTQLKATSSRSCDKTHTCPPCPAPEAEGAPSVFLFPPKPKDTLMISRTPEVTCVVVDVSHEDPEVKFNWYVDGVEVHNAKTKPREEQYNSTYRVVSVLTVLHQDWLNGKEYKCKVSNKALPAPIEKTISKAKGQPREPQVYTLPPSREEMTKNQVSLTCLVKGFYPSDIAVEWESNGQPENNYKTTPPVLDSDGSFFLYSKLTVDKSRWQQGNVFSCSVMHEALHNHYTQKSLSLSPGK | 30 | 60
6 | ADAM-20dis-Fc (Fc fusion, also called ADAM-20 disintegrin-Fc polypeptide) TSCGNLVVEEGEECDCGTIRQCAKDPCCLLNCTLHPGAACAFGICCKDCKFLPSGTLCRQQVGECDLPEWCNGTSHQCPDDVYVQDGISCNVNAFCYEKTCNNHDIQCKEIFGQDARSASQSCYQEINTQGNRFGHCGIVGTTYVKCWTPDIMCGRVQCENVGVIPNLIEHSTVQQFHLNDTTCWGTDYHLGMAIPDIGEVKDGTVCGPEKICIRKKCASMVHLSQACQPKTCNMRGICNNKQHCHCNHEWAPPYCKDKGYGGSADSGPPPKNNMEGLNVMGKLRGSCDKTHTCPPCPAPEAEGAPSVFLFPPKPKDTLMISRTPEVTCVVVDVSHEDPEVKFNWYVDGVEVHNAKTKPREEQYNSTYRVVSVLTVLHQDWLNGKEYKCKVSNKALPAPIEKTISKAKGQPREPQVYTLPPSRDELTKNQVSLTCLVKGFYPSDIAVEWESNGQPENNYKTTPPVLDSDGSFFLYSKLTVDKSRWQQGNVFSCSVMHEALHNHYTQKSLSLSPGK |  | 58
